Usually EC50 stands for the concentration that produces a half-maximal response. A word on the Kd: it is the constant that tells how readily two partners part at equilibrium. Low values mean higher affinity, high ones lower affinity.

From patent US20200299342A1 come the findings set out here.

In experiment [1] the target is Skp1tr-F-box^Fbw7 complex (human) (UniProt P63208). Briefly: ELISA. (In an ELISA, binding on a coated surface is turned into a signal by an enzyme label.)
Target sequence in this assay (P63208 other isoform, or with tags, fused parts or gaps, chain 1 of 2): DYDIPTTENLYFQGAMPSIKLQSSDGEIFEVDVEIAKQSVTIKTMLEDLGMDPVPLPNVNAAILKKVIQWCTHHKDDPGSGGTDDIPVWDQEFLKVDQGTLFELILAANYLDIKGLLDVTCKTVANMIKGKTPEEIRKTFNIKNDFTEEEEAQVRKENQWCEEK
Target sequence in this assay (Q969H0 other isoform, or with tags, fused parts or gaps, chain 2 of 2, further chain): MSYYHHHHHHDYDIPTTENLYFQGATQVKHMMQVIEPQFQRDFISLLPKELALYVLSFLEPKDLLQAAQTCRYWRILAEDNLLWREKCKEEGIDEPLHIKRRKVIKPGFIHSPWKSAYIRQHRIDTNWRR
Experiment [2] has the same target. Briefly: SPR.
Target sequence in this assay (P63208 other isoform, or with tags, fused parts or gaps, chain 1 of 2): as the sequence (P63208 other isoform, or with tags, fused parts or gaps, chain 1 of 2) above
Target sequence in this assay (Q969H0 other isoform, or with tags, fused parts or gaps, chain 2 of 2, further chain): as the sequence (Q969H0 other isoform, or with tags, fused parts or gaps, chain 2 of 2, further chain) above
For experiment [3] the target is unchanged. Briefly: SPR, complex immobilised, Cul1 NTD injected. In general terms: SPR reads the build-up and loss of mass on a sensor chip optically.

For “Cul1 N-terminal domain (NTD) (from UniProt Q13616 1-410)”, the EC50 in experiment [1] came to 11 nM. The Kd in experiment [2] is 3.6 nM. Besides, the fold weaker than with Skp1-F-box^Fbw7 in experiment [3] was found to be 1000 fold.
